The results in this text go back to article PMC6511850 (Nucleic Acids Research, 2019).

This series deals with the molecule itself. The experiment in a line: SEC. In general terms: Size exclusion chromatography separates by hydrodynamic size, large species first.

B1: Bacillus subtilis m1A22 tRNA methyltransferase TrmK (wild type) (enzyme, UniProt P54471 1-238, looked up)
chain: MNELKLSKRLQTVAEYIPNGAVMADIGSDHAYLPCYAVLNHKASGAIAGEITDGPFLSAKRQVEKSGLNSHISVRQGDGLEVIKKGEADAITIAGMGGALIAHILEAGKDKLTGKERLILQPNIHAVHIREWLYKERYALIDEVILEEDGKCYEVLVAEAGDRDAAYDGISLSAGMLVGPFLAKEKNAVFLKKWTQELQHTQSIYEQISQAADTEQNKQKLKELADRMELLKEVIDHG
As for B1, the binding result is listed as “binds”.
